Consider 2 molecules from article doi:10.1101/2022.01.24.477625 (bioRxiv, 2022).

This assay addresses SARS-CoV-2 spike protein (FL-GCN4-Avi-His, biotinylated) (SARS-CoV-2, Wuhan-Hu-1, UniProt P0DTC2, stabilised, biotin on the Avi tag). As to the kind of experiment: BLI.

B1: CV27 IgG (antibody, V domains shown)
VH: QVQLVESGGGVVQPGRSLRLSCAASGFTFSSYAMHWVRQAPGKGLEWVALISYDGSNKYYADSVKGRFTISRDNSKNTLYLQMNSLRAEDTAVYYCARSFGGSYYYGMDVWGQGTTVTVSS
VL: QSALTQPASVSGSPGQSITISCTGTSSDVGGYNYVSWYQQHPGKAPKLMIYDVSNRPSGVSNRFSGSKSGNTASLTISGLQAEDEADYYCSSYTSSSTPYVFGTGTKVTVL
B1: the binding result is on record as “binds”.

B2: CV27 FAb (Fab, V domains shown)
VH: QVQLVESGGGVVQPGRSLRLSCAASGFTFSSYAMHWVRQAPGKGLEWVALISYDGSNKYYADSVKGRFTISRDNSKNTLYLQMNSLRAEDTAVYYCARSFGGSYYYGMDVWGQGTTVTVSS
VL: QSALTQPASVSGSPGQSITISCTGTSSDVGGYNYVSWYQQHPGKAPKLMIYDVSNRPSGVSNRFSGSKSGNTASLTISGLQAEDEADYYCSSYTSSSTPYVFGTGTKVTVL
As for B2, the binding result is “binds”.
